Results reported in the DeepSol protein solubility set.

Experiment: soluble on expression in E. coli; label from the status in PepcDB or PDB records

Sequence	soluble on expression in E. coli
MGSDKIHHHHHHMHIVDVTMFYAPASGGVRTYLQAKREILSQVPGLRTSLLVPGAERDSLGNHHTLPALRLPLGQGYRFPLRARLWRDALGALAPDIIEAGDPYVTAWAALDASQRLGVPVVGFYHSDLPRLMGDRFGRQVGRRLERYVVNLYRRFDSVLAPCQAMADRLRDWGIDQVRVQPLGVDLQRFHPSCKDPALREELGLAPETRLLVFIGRNSREKNIDILLATMKRLGNGYHLLLIGPGMPRQVPANVTSFDRCCGIYEVARVLASSDAMLHAGTRETFGLIAQEAMASGIPVVGAKAGALKENVPLGAGILCRPLDPEAMADACQSLFRNDVVASGRYARRYVELHFSWESAMKNLLEHYRQLCASSELHVIPQKA	not soluble
MSLINLKHSFGISRSSHDFYDIVYFYIVDGEIIGRGEAAPSKRYNETTEKIISVLNKGILVPENFEDADQLWEYIKPQLEGISALEAAANMAIWDWRGQKENKAVHDILGFNVSKLPATSYTISIGDMSELDEKIELSNPYSIIKVKLGTPNDDKEIISQIRQRTDKLIRVDANEGWSLDNAKEMSYWLADRNVEFIEQPFKAKMLNETRSLREFSPLPLFADENSLVSSDIPNIVDCFDGINIKLMKCGGLDEALKMIEIAKHFDMQIMLEGHHHHHH	not soluble
MGSDKIHHHHHHMNVFATLKTVFFGSKFLSSPVPIDGTPRRDLVSALNGLMPLCRTIPGVRLALDIREGQVVLALNWTPRTDGNAPTGSYHYIVSDEDGVREMADSQVLLTENGKDNLPGSMDDSRTHPTVSTEKTEKDSAHLKKDVQKKAGPTSPEDTGKKAKSHTLMQEVTAFLTSRYRFRFNVLTEETEVASVENNIPDTHLRYAKVDERWMNSLSLEAIETGIDCWDRDIQRFVRSRRISEYHPFTAYFEQLPEWDGTDRVSALARRVSDDPVWVNGFHRWMLGLSAQWMQLNPDNNRANSVAPLLVSSRQGLGKSTFCRLLMPDRLKSYYTESYDLSSPTSAEAKLAAYGLINLDEFDKLGASKMPLLKNLMQASALNIRKAYKHSASSLPRIASFIGTSNREDLLVDRTGSRRFLCVSLKHAIDCTTSVEHKQLYAQLKTELLSGERSWFNKEEEQTIQQHNALFYKHVPEEEVFRLCFRFATEEDNPQEVLSLSATQLFERMKAAHPSIMRGMTAYSLSRILPQLGERVHTTKGNVYRVVEC	not soluble
SAQTTDTGWMTNPQHPPVQTRFVLTGQQDPQAKTLTGYLDVKLTGDWKTYWRSPGEGGVAPSIDWQNSQNLSKVDWQWPYPQKFELLGIETLGYKGDTLFPMTLHIDNMSKPVTIDAVLTLSSCTTICVLTDYQIQLTFLPSELQIDEQVMFSYAQAVSNVPQPSPFIDVTQASWDANQSKLQIKLTNTQGWNQPQVLVDGVDEATRDYSFKLEGIHQEGNTVTASYLVDTWLGDVELSDQSLFVTIKDANLLAEETTQAIAEAIVDPLPSTSVVS	soluble
GPGSMNVCSNTTKDPLTLMAMWGSMKGYNPEQGFSFEGPEKRLEVILRSTLETHVDGLRSLDDSVWSGVVGSLNAQIVSRESNEYINSYVLTESSLFVMKNRIILITCGTTTLLNSIPNILEAISAVRGELEWVSFMHKNYSFPWMQKGPHTSLADEFATLKQHFPTGKPYIFGPVDSDHYFLFCYDDIIRPCSSEDDTQLSMTMYGLDKEQTKYWFRDRFISTSAETAAIRAATHLDRVVDGTWTLHDLQFEPCGYSINAIRDEEYQTMHITPEDHCSFASYETNSRATNYSDRMKKVLGVFRPQRFTVIVFLDPESPVGKAYNEGKGIGVEPEYYPEYSLLHRTTNEFAPGYVAMKINYVRTAAVEETDAAVGGAEPGAKSGPD	not soluble
MTDICMLKTMDSRNTNEAKQEPKTMVWWDINSCPVPDGYDARMVAHSIESELKKAGYPGPLTITAIGYLNTPLMCM	not soluble
MSLEIIKTGLAAFGMSGQVFHAPFISTNPHFELYKIVERSKELSKERYPQASIVRSFKELTEDPEIDLIVVNTPDNTHYEYAGMALEAGKNVVVEKPFTSTTKQGEELIALAKKKGLMLSVYQNRRWDADFLTVRDILAKSLLGRLVEYESTFARYRNFIKPNTWKETGESGGGLTYNLGSHLIDQAIQLFGMPEAVFADLGILREGGKVDDYFIIHLLHPSLAPNVKITLKASYLMREAEPRFALHGTLGSYVKYGVDKQEAALLAGEIPERPNWGEESEQEWGLLHTEINGKEICRKYPGIAGNYGGFYQNIYEHLCLGQPLETHAQDILNVIRIIEAAYQSHRENKIVNLKEGHHHHHH	soluble
MGSDKIHHHHHHMLLKLLHYLRCPQCRSQLSLSEATVGDWVEQGQLLCTQCRRTYAITKGIAYLYVENEEWKQLAAEAAGWVQMAKDAGCYDQTGIDIDFRLPYVPIPPWIDIARAFDIVLNIVRPRPGAMVVDIGAGRGWAAKQFAIRGCHAVAVEINDDDQIGLGRSLALMQHANVQYDLLIASSQRLPLADESFDIVFASAALHHSSCLATLLSEAARVLRRGGKLIAIHEPCIADHVTPEQDAPNIAQETAYNIHESRPKLDDYRHALRHAGLQELALFNHELYGTSIEDMQQWAANHWLSLLTADQIAMLRRKRTPTLWRTIRILRSRLQQLPDTTLVPPQDWMDQYYRHVGGSLTIIAQKP	not soluble
MTESVARLRGEQLTLGYGKYTVAENLTVEIPDGHFTAIIGPNGCGKSTLLRTLSRLMTPAHGHVWLDGEHIQHYASKEVARRIGLLAQNATTLGDITVQELVARGRYPHQPLFTRWRKEDEEAVTKAMQATGITHLADQSVDTLSGGQRQRAWIAMVLAQETAIMLLDEPTTWLDISHQIDLLELLSELNREKGYTLAAVLHDLNQACRYASHLIALREGKIVAQGAPKEIVTAELIERIYGLRCMIIDDPVAGTPLVVPLGRTAPSTANS	not soluble
MKFGKEIAKKNQIIYRYIILKIQSFEWPANTRIFSERQLEIRFNSSRSQIRSVLATLLNKNIIRYTKNTPGYFVCKDVGFSFFHKTQDNLKVKYAKLSTLIKKLLSQDDASVFANIDSTVHLDKFKGIEAKFFDENKKHFLNVCFFAKDDILNILDENNLQQQFFREFAYNGIAIEKRHCVTSVDKESGCLVMYDMYYDDNDNFVVASKSNFLNPELKVINA	soluble
MDSLNNGWFSELQADLWPGQSFSLKVKEVIHKEKSRFQDIQIVETETYGRCLILDGIIQCTARDEFSYQEMISFLPLCAHPNPKKVLIVGGGDGGVAREVVKHPLVEEVHQVEIDDRVVELSKQYLPAMACGFANEKLKLTIGDGFDYMKKHKNEFDVIITDSSDPIGPAVSLFQESYYELMKHALKDDGIVCSQGGSFWLDLDYIKKTMSGCKEHFAKVAYAVTSVPSYPCGHIGFVMGSLNKNQDFATPKLGKSEIDSIDLRYYSSEVHSAAFALPRWVQKHFYELEHHHHHH	not soluble
MPPPTASTPDDSADPGPDFADVPPTDLVKVGFIFRPHGLDGELKIDPSATDDPARFEVLPTVFVGPHPRRVVRHDIASVRYQKTKRGITVILGLDGIVDRDDAEAVAKMDVFATEAALGLEDDELFADDLVGWTVVTEEGAVQGTVADFMEMPAQDLFVVRTPEDTEAMIPAIDDFIIEIDEEAERIVVRPIDGLMDALEHHHHHH	not soluble
MAHHHHHHMELPFQWDDGNFISPFLTSGDDTLRVLAAWLNDSPLLRFQHGGALRLTDLGCGDGSALLSLSAGLFTLWGASGCRDVSPLQLTAVGLDLDEELILAARRRAEAIIVPPPHRLHCVFETVDVRQLDAAQYFPLSESSRHVLFVYLLPEGLEAIREKLLEIISRVALLVSNRWEVPFLARWKRVKLQNLHLYQYVGDGAN	not soluble
MQYINYRENRRRGTADFPLEYYHVTASHPQYVMSFHWHVEFELIRILSGSLTVTIDEIEFLAEAGDSIFIPAGSIHSGIPDDCVYECLVFDMNMLMNKTDSCCRFLRQITDHEVSVQTHYPKICNTIHRTLWTLFDAAASKKEGYQLVVFGAMYQFFGTLFSEGFCKNAPDEEHRSHKRILQLKQALEFMESSYNLPLTLEEISGSVNMSPKYFCRFFHEMTHRTPIDYLNYYRIERACYQLITTNLSITEIAYASGFNDLSYFIKTFKKYKGTTPKKYLKI	not soluble
MALPLPDPSEQAYSDTLKTMLHERIAHSGGWISFADYMETVLYTPETGYYSGGAAKFGTAGDFVTAPEISPLFGQALARQIAPILSAVNQGSILEFGAGSGKLAVDLLCALEELNNLPQHYYILDLSADLQQRQRAMIEQHIPHLASRVSWLSALPEQFEGLILANEVLDAMPVHLVAWQNGNIAERGVIWKDQGPVWQDQPLAAGELLDVARQLPPADQFSYPLYISEISLTNRHFICSLAMLLQRGAILLVDYGFGQNEYYHPQRHQGTLMCHYRHHAHDDPFFLPGLQDITSHVDFSTIARTALDSGLQLAGYTTQAHFLINCGITDLLARTPADQPGSYLPLVSQVQRLVSPAEMGELFKVMVLSRDIDIDAASCGFTRGDLRRLLLEHHHHHH	not soluble
MNNWREIAVRPDESIRETLEVIDEGAVQIAIVADGHDHLQGIVTDGDIRRGILKDLDLGAPVASVMNEDPITARPQEDRQSLIDTMRARRIHQIPLVDNEGRVVGIEVLDDLLEPEARPNPVVLMAGGLGTRLRPLTDDCPKPLLEVGDKPILETILEGFIAHGFHRFYLSVNYKAGMIEDYFRDGSNWGVDISYVHEEKRLGTAGPLSLLPERPDETMIVMNGDLLTKLNFTHLLDFHREHGAVATMCVREHETQVPYGVIETDDQSMEGIEEKPTERYFVNAGIYVLEPETLGYVPENEFFDMPDLFKRLIDEGKEATVFPVREYWQDVGRKEDFHRVNGEYEEVFDTLEHHHHHH	soluble
MSLSWYEEWFWSDAYTRVYDHRDDAEAEQLVDLIEHEIAPASGAHILDIGCGRGRHARALVRRGWQVTGLDLSEDAVAAARSRVADDDLDVRASFRVGDMRTPVCDGCADGVVNLFTSFGYFDADAENERALAAMATALRPGGWFLQDFLNAPQVAESLGASVYETEDGRTIHQDRWIEDGRVNKKITVRQNGHTETFQESVRLYTRSDLTAMYERVGLEVVALFGDYDGGNYVPDESPRLLLHAVRPTEGHHHHHH	soluble
MTNMDNYCVIMGGGIGSRFWPFSRKTLPKQFLDFFGTGRSLLQQTFDRFQKVIPTENILIVTNAMYADLVKEQLPELDEKQILLEPARRNTAPCIAWAAYHIRALNPNANIVVAPSDHLILKEEEFRAAIIKGLEFVSHSEKLLTLGIKPNRPETGYGYIQIDEPTGDGFYKVKTFTEKPELELAKVFVESGEFYWNSGLFMWNVNTIIKAAEILLPELVSKLAPGKNIYATDKEKAFIEENFPACPNVSIDFGIMEKADNVYVSLGDFGWSDLGTWGSLYDLSERDREGNVTLKSHSLIYNGKDNMIVLPKGKLAVIDGLEGYLIAESDNVLLICRKDEEHSIRKYVNDAQMQLGDDFI	not soluble
MGSDKIHHHHHHGEGVVVATGKAQAAASTVAGNAYGRLQFSPCTLSSGSAAGNIEAQCAQLQVPENPAAPNGRKLALKIAWLESDAGASHAPDPVFFIAGGPGQSATQVAAIVDMGLREVRKHRDIFLVDQRGTGGSHPLECRDAGGTPLVLENDSAATAEQLSAYAARCAAGLRNDADPRYFTTSEAIGDLDAVREALGAQQINLIGGSYGTRVAQQYAARYPQHTRTVVLDGVAPNDLVIGGEFARTFEDAIALQTTQCKAQPACAKRFPVDTRTQLRQVVERLRQAPAPVDYRDPRTGELHHQEVNADTVAGLAFGFSYAPETASLLPLVLDEAAAGRYASLMALAQMSGSDMADQMNRPMQWSVLCSEDAGRYRAPAAQDDTLLGAQVAEMFFAACKTWPSKPTPAAAFAPFRSTLPVLLLSGQLDPVTPPRYAARVLQGLPNGRHLIAPGQSHGVFRLGCMPKVLGQFLQTADAKGLDARCVDSLTDVPAFTSFNGWEP	not soluble
